Test results as given in publication PMC7337054, “Structural basis for differentiation between two classes of thiolase: Degradative vs biosynthetic thiolase” (Journal of Structural Biology: X, 2020).

Substrate: CC(=O)CC(=O)SCCNC(=O)CCNC(=O)[C@H](O)C(C)(C)COP(=O)(O)OP(=O)(O)OC[C@H]1O[C@@H](n2cnc3c(N)ncnc32)[C@H](O)[C@@H]1OP(=O)(O)O
Assay: purified protein
Assay type: biochemical, Pseudomonas putida
Details: thiolytic cleavage, 70 μM CoASH, 25 mM MgCl2, 0.1 M Tris-HCl pH 8.3, 37 °C

B1: PcaF (β-ketoadipyl-CoA thiolase) (Pseudomonas putida KT2440) (protein)
chain: MHDVFICDAIRTPIGRFGGALASVRADDLAAVPLKALIERNPGVQWDQVDEVFFGCANQAGEDNRNVARMALLLAGLPESIPGVTLNRLCASGMDAVGTAFRAIASGEMELVIAGGVESMSRAPFVMGKAESAYSRNMKLEDTTIGWRFINPLMKSQYGVDSMPETADNVADDYQVSRADQDAFALRSQQKAAAAQAAGFFAEEIVPVRIAHKKGEIIVERDEHLRPETTLEALTKLKPVNGPDKTVTAGNASGVNDGAAAMILASAAAVKKHGLTPRARVLGMASGGVAPRVMGIGPVPAVRKLTERLGIAVSDFDVIELNEAFASQGLAVLRELGVADDAPQVNPNGGAIALGHPLGMSGARLVLTALHQLEKSGGRKGLATMCVGVGQGLALAIERV
notes: full length, 400 residues plus 22 vector residues; N-terminal His-tag with TEV site, pSGC-His, E. coli BL21(DE3) pLysS; tetramer
Question: How did the Km turn out when B1 was run?
Answer: 67.8 ± 8.2 µM

Question: And the kcat?
Answer: 0.7 ± 0.08 S^−1
